Laboratory results from patent US20250223336A1.

Legend:
[1] = biological target: wild type SARS-COV-2 spike receptor binding domain (RBD), 6His-Strep-TEV-RBD construct, refolded from E. coli (SARS-COV-2) (UniProt P0DTC2)
[2] = biological target: SARS-COV-2 spike protein on virus-like particles (VLPs) (SARS-COV-2) (UniProt P0DTC2); experiment: cell-based or functional assay

Substance “LCB3 de novo designed miniprotein (from Cao et al., synthesised through recombinant expression in E. coli) (designed binder)” has a Kd [1] of 926 nM, a Response Amplitude [1] of 73.5 and a reduction in FITC signal (VLP binding to A549 cells) [2] of 84%.
